Laboratory results published in US20120052092A1 (published 2012).

Experiments:
fHbp variant 3 [1] = target: fHbp variant 3 (Neisseria meningitidis); test: SPR; sensorgram
fHbp variant 2 [2] = target: fHbp variant 2 (Neisseria meningitidis); test: SPR; sensorgram
fHbp Variant 2 [3] = target: fHbp Variant 2 (Neisseria meningitidis); test: SPR
fHbp Variant 3 [4] = target: fHbp Variant 3 (Neisseria meningitidis); test: SPR
[5] = target: T1, factor H binding protein (wild type, variant 1) (UniProt E6MV22 20-274); test: SPR; 402His
T1 chain: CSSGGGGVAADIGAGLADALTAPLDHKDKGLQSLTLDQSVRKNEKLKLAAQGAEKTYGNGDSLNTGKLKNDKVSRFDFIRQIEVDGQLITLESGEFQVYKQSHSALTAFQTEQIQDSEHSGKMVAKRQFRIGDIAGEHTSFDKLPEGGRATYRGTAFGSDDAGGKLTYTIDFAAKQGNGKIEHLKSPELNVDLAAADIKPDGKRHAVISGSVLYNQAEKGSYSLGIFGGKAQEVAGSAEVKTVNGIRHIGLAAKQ

[6] = target: T1, factor H binding protein (wild type, …); test: SPR
[7] = target: T1, factor H binding protein (wild type, …); test: SPR
[8] = target: T2, Neisseria gonorrhoeae fHbp homologue (NGO0033) (Neisseria gonorrhoeae); test: SPR
T2 chain: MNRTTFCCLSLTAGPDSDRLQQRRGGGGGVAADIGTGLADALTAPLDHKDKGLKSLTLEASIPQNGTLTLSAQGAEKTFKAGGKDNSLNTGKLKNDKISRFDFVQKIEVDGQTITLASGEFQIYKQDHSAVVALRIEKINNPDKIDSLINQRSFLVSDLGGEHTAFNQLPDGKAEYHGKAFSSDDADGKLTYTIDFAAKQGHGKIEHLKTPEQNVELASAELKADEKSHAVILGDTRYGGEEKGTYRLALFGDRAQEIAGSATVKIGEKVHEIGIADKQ

fH678 Tyr402 = test: SPR; 402Tyr
6 7H 8 = test: SPR; 402His
fH678 His 402 = test: SPR; 402His
6 7Y 8 = test: SPR; 402Tyr
FH67 N339E M340S = test: SPR

B1: FH678 (other)
chain: TLKPCDYPDIKHGGLYHENMRRPYFPVAVGKYYSYYCDEHFETPSGSYWDHIHCTQDGWSPAVPCLRKCYFPYLENGYNQNYGRKFVQGKSIDVACHPGYALPKAQTTVTCMENGWSPTPRCIRVKTCSKSSIDIENGFISESQYTYALKEKAKYQCKLGYVTADGETSGSITCGKDGWSAQPTCIKSC
Kd (fHbp variant 3 [1]): 3.43 nM | Kd (fHbp variant 2 [2]): 1.51 nM | Kd (fHbp Variant 2 [3]): 2 nM | Kd (fHbp Variant 3 [4]): 3 nM

B2: fH67 (CCPs 6 and 7 of factor H) (other)
chain: TLKPCDYPDIKHGGLYHENMRRPYFPVAVGKYYSYYCDEHFETPSGSYWDHIHCTQDGWSPAVPCLRKCYFPYLENGYNQNYGRKFVQGKSIDVACHPGYALPKAQTTVTCMENGWSPTPRCI
Kd [5]: 4 nM | Kd [6]: 4 nM | Kd [7]: 5 nM | Kd [8]: 6000 nM

B3: FH67 (other)
chain: TLKPCDYPDIKHGGLYHENMRRPYFPVAVGKYYSYYCDEHFETPSGSYWDHIHCTQDGWSPAVPCLRKCYFPYLENGYNQNYGRKFVQGKSIDVACHPGYALPKAQTTVTCMENGWSPTPRCI
Kd (fHbp Variant 2 [3]): 2 nM | Kd (fHbp Variant 3 [4]): 3 nM

B4: fHbp (other)
chain: CSSGGGGVAADIGAGLADALTAPLDHKDKGLQSLTLDQSVRKNEKLKLAAQGAEKTYGNGDSLNTGKLKNDKVSRFDFIRQIEVDGQLITLESGEFQVYKQSHSALTAFQTEQIQDSEHSGKMVAKRQFRIGDIAGEHTSFDKLPEGGRATYRGTAFGSDDAGGKLTYTIDFAAKQGNGKIEHLKSPELNVDLAAADIKPDGKRHAVISGSVLYNQAEKGSYSLGIFGGKAQEVAGSAEVKTVNGIRHIGLAAKQ
Kd (fH678 Tyr402): 7.2 nM | Kd (6 7H 8): 6 nM | Kd (fH678 His 402): 5.7 nM | Kd (6 7Y 8): 7 nM

B5: fHbp Variant 1 (other)
chain: CSSGGGGVAADIGAGLADALTAPLDHKDKGLQSLTLDQSVRKNEKLKLAAQGAEKTYGNGDSLNTGKLKNDKVSRFDFIRQIEVDGQLITLESGEFQVYKQSHSALTAFQTEQIQDSEHSGKMVAKRQFRIGDIAGEHTSFDKLPEGGRATYRGTAFGSDDAGGKLTYTIDFAAKQGNGKIEHLKSPELNVDLAAADIKPDGKRHAVISGSVLYNQAEKGSYSLGIFGGKAQEVAGSAEVKTVNGIRHIGLAAKQ
Kd (FH67 N339E M340S): 67 nM

B6: Factor H Domains 5, 6 and 7 (other)
chain: KSCDNPYIPNGDYSPLRIKHRTGDEITYQCRNGFYPATRGNTAKCTSTGWIPAPRCTLKPCDYPDIKHGGLYHENMRRPYFPVAVGKYYSYYCDEHFETPSGSYWDHIHCTQDGWSPAVPCLRKCYFPYLENGYNQNYGRKFVQGKSIDVACHPGYALPKAQTTVTCMENGWSPTPRCI
Kd [5]: 6 nM | Kd [6]: 6.1 nM
